Reference: patent US20220242973A1 (Molecular Partners, published 2022)

T1: Human FAP expressed on the cell surface (WI38, CHO-FAP1.9, U87MG cells) (human, UniProt Q12884 1-760)
T1 construct: whole, on cells; Endogenous on WI38 and U87MG cells; from a human FAP cDNA (OriGene) in CHO-FAP1.9 cells; also called hFAP; FAP+ cells
T1 sequence (looked up): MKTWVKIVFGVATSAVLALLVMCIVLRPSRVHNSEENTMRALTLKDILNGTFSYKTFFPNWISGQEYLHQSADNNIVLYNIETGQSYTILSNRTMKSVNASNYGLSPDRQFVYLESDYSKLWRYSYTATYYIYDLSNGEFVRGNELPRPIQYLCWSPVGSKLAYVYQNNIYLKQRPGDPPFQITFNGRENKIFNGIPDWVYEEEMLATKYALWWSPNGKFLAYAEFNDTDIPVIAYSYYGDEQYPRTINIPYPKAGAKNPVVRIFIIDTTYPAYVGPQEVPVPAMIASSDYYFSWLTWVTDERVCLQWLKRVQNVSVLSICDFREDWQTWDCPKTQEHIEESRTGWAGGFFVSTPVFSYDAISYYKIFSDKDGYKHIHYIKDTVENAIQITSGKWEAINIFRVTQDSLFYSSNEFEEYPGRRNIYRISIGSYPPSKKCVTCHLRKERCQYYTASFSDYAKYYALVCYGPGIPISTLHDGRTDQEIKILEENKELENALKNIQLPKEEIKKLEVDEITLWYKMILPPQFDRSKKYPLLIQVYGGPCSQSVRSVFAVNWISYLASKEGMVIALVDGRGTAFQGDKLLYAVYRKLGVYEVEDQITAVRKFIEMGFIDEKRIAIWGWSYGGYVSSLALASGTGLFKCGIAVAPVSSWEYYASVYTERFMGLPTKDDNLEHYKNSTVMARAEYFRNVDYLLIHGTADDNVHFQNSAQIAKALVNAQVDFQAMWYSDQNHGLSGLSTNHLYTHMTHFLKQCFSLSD

T2: Recombinant human FAP (fibroblast activation protein) (human, UniProt Q12884 26-760)
T2 sequence (looked up): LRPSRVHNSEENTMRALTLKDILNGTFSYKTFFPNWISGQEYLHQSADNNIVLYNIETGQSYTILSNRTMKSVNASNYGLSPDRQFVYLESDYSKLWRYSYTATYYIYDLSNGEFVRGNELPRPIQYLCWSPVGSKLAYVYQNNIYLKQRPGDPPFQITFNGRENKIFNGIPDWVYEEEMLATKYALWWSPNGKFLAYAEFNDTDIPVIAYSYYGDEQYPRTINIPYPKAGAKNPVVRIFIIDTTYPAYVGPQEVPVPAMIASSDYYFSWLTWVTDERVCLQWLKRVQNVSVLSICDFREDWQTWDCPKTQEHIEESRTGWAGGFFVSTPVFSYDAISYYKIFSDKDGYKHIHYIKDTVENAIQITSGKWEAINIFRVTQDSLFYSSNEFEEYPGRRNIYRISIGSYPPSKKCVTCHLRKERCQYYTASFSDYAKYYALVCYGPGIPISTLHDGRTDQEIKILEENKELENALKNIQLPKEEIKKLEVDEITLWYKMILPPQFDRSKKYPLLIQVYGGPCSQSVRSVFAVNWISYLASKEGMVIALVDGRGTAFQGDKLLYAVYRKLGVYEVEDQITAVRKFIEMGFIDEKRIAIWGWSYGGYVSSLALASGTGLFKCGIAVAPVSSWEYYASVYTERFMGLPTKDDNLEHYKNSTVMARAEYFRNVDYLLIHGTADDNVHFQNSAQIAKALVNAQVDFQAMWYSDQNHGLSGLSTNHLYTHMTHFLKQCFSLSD


Assays:
[1] = molecular target: T1, Human FAP expressed on the cell surface …; assay: FACS on FAP-expressing WI38 cells, Penta-His AF647 detection
Summary of the method: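 WI38 cells (20,000/well) incubated 30 min on ice with 2-fold dilutions of His-tagged ankyrin repeat proteins, washed, stained with Penta-His AF647 plus live/dead dye, fixed. Median fluorescence by flow cytometry; EC50 from non-linear regression of binding curves.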

[2] = molecular target: T1, Human FAP expressed on the cell surface …; assay: FACS on WI38 cells
Description: Using multi-well plates, 20,000 WI38 cells were added per well in 50 μl of PBS. 50 μl of appropriate dilutions (2× dilution steps) of ankyrin repeat protein was then added to the cells and incubated for 30 minutes on ice. After the ankyrin repeat protein-binding reaction, cells were washed twice with PBS. Direct immunofluorescent detection of the His-tagged ankyrin repeat proteins using Penta-His AF647 conjugate (QIAgen) and determination of live cells using LIVE/DEAD™ Fixable Green Dead Cell Stain Kit (ThermoFisher) were then performed together in one step. The Penta-His AF647 conjugate and the LIVE/DEAD™ Fixable Green dye were applied to the cells together in 1/200 (Penta-His) and 1/1000 (LID Fixable) final dilutions and incubated for 20-30 minutes on ice. After washing the cells with PBS, cells were re-suspended in 1× CellFix™ buffer (BD Biosciences) (10× stock was diluted 1/10 in water). […] Acquisition and FACS analysis, including the determination of median fluorescence intensity (MFI), were done within 5 days after staining using an AttuneNxT instrument. […]
Similarly, binding of the engineered ankyrin repeat proteins, i.e. DARPin® protein #34 and DARPin® protein #35, to FAP-expressing WI38 cells was also tested essentially as described above. Fold increase MFI was calculated by dividing the sample MFI by the MFI of the background control. […]

[3] = molecular target: T2, Recombinant human FAP (fibroblast …); assay: cell-based or functional assay
[4] = molecular target: T1, Human FAP expressed on the cell surface …; assay: FACS on CHO-FAP1.9 cells (human FAP transfectants)

Binder | EC50 [1] [nM] | EC50 [2] [nM] | FAP activity (%) [3] [%] | EC50 [4] [nM]
DARPin® protein #39 (designed binder) MRGSHHHHHHGSDLGKKLLEAARAGQDDEVRELLKAGADVNAKDEWGKTPLHLAAIRGHLEIVEVLLKAGADVNAKDTHGITPLHLAAFVGHLEIVEVLLKAGADVNAKDYLGRTPLHIAAAKGHLEIVEVLLKAGADVNAQDKSGKTPADLAADAGHEDIVEVLQKLN | 0.203 |  |  | 
DARPin® protein #34 (designed binder) MRGSHHHHHHGSDLGKKLLEAARAGQDDEVRELLKAGADVNAKDVLGWTPLHLAAFEGHLEIVEVLLKAGADVNAKDKKGWTPLQLAARTGHLEIVEVLLKAGADVNAKDHIGATPLHLAAWQGHPEIVEVLLKAGADVNAQDKSGKTPADLAADAGHEDIAEVLQKAA |  | 0.736 | 93 | 1.19
DARPin® protein #36 (designed binder) MRGSHHHHHHGSDLGKKLLEAARAGQDDEVRILLAAGADVNAKDVLGWTPLHLAAFEGHLEIVEVLLKAGADVNAKDKKGWTPLQLAARTGHLEIVEVLLKAGADVNAKDHIGATPLHLAAWQGHPEIVEVLLKAGADVNAQDKSGKTPADLAADAGHEDIAEVLQKLN | 0.235 |  |  | 
DARPin® protein #35 (designed binder) MRGSHHHHHHGSDLGEKLLVAALYGQDDEVRELLKAGADVNAKDQWGLTPLHKAALQGHLEIVEVLLKAGADVNAKDERGHTPLHWAARFGHLEIVEVLLKAGADVNAQDQKGYTPADLAALWGHEDIAEVLQKAA |  | 0.994 | 90 | 2.02
DARPin® protein #37 (designed binder) MRGSHHHHHHGSDLGEKLLVAALYGQDDEVRILLAAGADVNAKDQWGLTPLHKAALQGHLEIVEVLLKAGADVNAKDERGHTPLHWAARFGHLEIVEVLLKAGADVNAQDQKGYTPADLAALWGHEDIAEVLQKLN | 0.118 |  |  | 
DARPin® protein #38 (designed binder) MRGSHHHHHHGSDLGKKLLEAARAGQDDEVRELLKAGADVNAKDEVGRTPLHLAAQIGHLEIVEVLLKAGADVNAKNRWGVTPLHVAAWVGHLEIVEVLLKAGADVNAKDQQGATPLHLAAIRGHLEIVEVLLKAGADVNAQDKSGKTPADLAADAGHEDIAEVLQKLN | 0.106 |  |  | 
